Square brackets hold non-standard residues; d marks the D form. Ends that are not written are not given here. * marks the point of attachment. Biotin = O=C1N[C@H]2[C@H](CS[C@H]2CCCCC(=O)*)N1; pS = N[C@@H](COP(=O)(O)O)C(=O)O
Legend:
[1] = target: T1, PLM 20-mer RCKFNQQQRTGEPDEEEGTF (R41–F60), on membrane (mouse, covalently linked to the membrane); test: peptide or protein array
T1 peptide: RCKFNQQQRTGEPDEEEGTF

[2] = target: T2, native NCX1(301–320) peptide synthesized on membrane (rat, covalently linked to the membrane); test: peptide or protein array
T2 peptide: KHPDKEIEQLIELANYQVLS

Biotin-KQRGMIIEHEGDRPASKTEI [biotin–NCX1(235–254)]: binds [1].

Biotin-ARILKELKQKHPDKEIEQLI [biotin–NCX1(292–311)]: binds [1].

Biotin-KHPDKEIEQLIELANYQVLS [biotin–NCX1(301–320)]: binds [1].

Biotin-KRCRCKFNQQQRTGEPDEEEGTFRSSIRRL[pS]SRRR (cysteine pairing not given here) [biotin–pSer68-PLMcyt]: binds [2].

— article PMC4964977 (Biochemical Journal, 2016)
